# T1: AP2 β2-appendage domain with linker (residues 617–951) (bovine, UniProt Q08DS7 617-951)
# T1 chain: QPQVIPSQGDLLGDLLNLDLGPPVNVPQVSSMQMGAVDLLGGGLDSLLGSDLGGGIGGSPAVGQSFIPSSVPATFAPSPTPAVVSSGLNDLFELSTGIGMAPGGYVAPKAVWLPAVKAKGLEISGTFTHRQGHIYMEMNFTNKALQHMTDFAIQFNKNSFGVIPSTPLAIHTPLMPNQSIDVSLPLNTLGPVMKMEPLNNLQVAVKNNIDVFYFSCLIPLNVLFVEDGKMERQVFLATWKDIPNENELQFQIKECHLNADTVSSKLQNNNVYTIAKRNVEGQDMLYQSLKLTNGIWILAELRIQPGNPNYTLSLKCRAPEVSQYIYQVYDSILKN
# B1: AP2 β2-appendage domain with linker (residues 617–951) (domain or fragment)
# chain: T1 chain
# B2: AP180 IDR (residues 281–898 of AP180) (domain or fragment)
# chain: GHMHLNTLEGKKPGNNEGSGAPSPLSKSSPATTVTSPNSTPAKTIDTSPPVDIFATASAAAPVSSAKPSSDLLDLQPDFSGAAAGAAAPVPPPTGGATAWGDLLGEDSLAALSSVPSEAPISDPFAPEPSPPTTTTEPASASASATTAVTAATTEVDLFGDAFAASPGEAPAASEGATAPATPAPVAAALDACSGNDPFAPSEGSAEAAPELDLFAMKPPETSAPVVTPTASTAPPVPATAPSPAPTAVAATAAATTTTTAAAATTTATTSAAAAATAAAPPALDIFGDLFDSAPEVAAASKPDVAPSIDLFGTDAFSSPPRGASPVPESSLTADLLSVDAFAAPSPASTASPAKAESSGVIDLFGDAFGSSASETQPAPQAVSSSSASADLLAGFGGSFMAPSTTPVTPAQNNLLQPNFEAAFGTTPSTSSSSSFDPSGDLLMPTMAPSGQPAPVSMVPPSPAMSASKGLGSDLDSSLASLVGNLGISGTTSKKGDLQWNAGEKKLTGGANWQPKVTPATWSAGVPPQGTVPPTSSVPPGAGAPSVGQPGAGYGMPPAGTGMTMMPQQPVMFAQPMMRPPFGAAAVPGTQLSPSPTPATQSPKKPPAKDPLADLNIKDFLLEHHHHHH
# Tests used:
# [1] = target: AP180 segment 471–700 (rat); assay: NMR titration; unlabeled AP2α titrated into 15N labeled AP180 (50 μM AP180 471–700, 90 μM AP180IDR); 1H-15N HSQC and 15N R1ρ; residue-wise KD from R1ρ against AP2α concentration; NMR buffer 50 mM Na-phosphate pH 6, 150 mM NaCl, 2 mM DTT, 25 °C
# Sequence of AP180 segment 471–700 (rat) (Q05140 whole entry): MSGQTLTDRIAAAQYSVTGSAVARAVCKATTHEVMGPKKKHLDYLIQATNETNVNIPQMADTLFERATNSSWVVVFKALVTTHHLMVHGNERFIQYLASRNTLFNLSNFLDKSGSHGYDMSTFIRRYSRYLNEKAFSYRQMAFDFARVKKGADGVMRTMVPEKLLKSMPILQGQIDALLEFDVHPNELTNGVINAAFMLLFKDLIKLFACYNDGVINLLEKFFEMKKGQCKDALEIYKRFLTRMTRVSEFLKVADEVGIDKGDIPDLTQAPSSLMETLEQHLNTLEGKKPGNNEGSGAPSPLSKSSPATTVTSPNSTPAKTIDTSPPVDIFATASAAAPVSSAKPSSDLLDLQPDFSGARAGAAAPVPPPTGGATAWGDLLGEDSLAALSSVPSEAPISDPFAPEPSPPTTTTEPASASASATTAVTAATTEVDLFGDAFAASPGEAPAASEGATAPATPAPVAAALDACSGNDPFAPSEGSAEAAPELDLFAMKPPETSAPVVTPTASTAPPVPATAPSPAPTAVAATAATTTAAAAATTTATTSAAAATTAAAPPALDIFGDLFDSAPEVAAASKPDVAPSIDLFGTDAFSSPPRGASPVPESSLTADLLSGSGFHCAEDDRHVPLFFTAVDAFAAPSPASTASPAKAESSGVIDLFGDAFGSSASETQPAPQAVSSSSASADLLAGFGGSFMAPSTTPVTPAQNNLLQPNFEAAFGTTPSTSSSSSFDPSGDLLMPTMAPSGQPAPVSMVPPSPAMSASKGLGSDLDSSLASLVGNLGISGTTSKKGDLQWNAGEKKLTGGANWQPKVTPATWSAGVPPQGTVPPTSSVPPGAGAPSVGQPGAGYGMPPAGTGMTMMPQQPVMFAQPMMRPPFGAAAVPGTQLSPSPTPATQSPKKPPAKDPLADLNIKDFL
# [2] = target: AP180 399-598 (rat); assay: ITC; AP2β2 mutants titrated into 0.04 mM AP180 399-598 in the cell; 25 °C; 150 mM NaCl, 50 mM Na-phosphate, 0.2 mM TCEP, pH 7.5; 1:1 binding model
# [3] = target: AP180 IDR (residues 281–898 of AP180) (rat); assay: NMR titration; unlabeled CHCTD (in 50 mM Na-phosphate pH 7.5, 150 mM NaCl, 2 mM DTT) titrated into 15N labeled AP180 in NMR buffer (pH 6); 1H-15N HSQC and 15N R1ρ; residue-wise KD from a linear fit of R1ρ against CHCTD concentration under the assumption of weak binding; 25 °C
# [4] = target: AP180 430–500 (extended interaction motif, EIM) (rat); assay: ITC; 0.03 mM AP180 construct in the cell (0.04 mM AP180 399–598 for the AP2β2 mutants), 2 μl steps of 0.3 mM AP2β2; 25 °C; 150 mM NaCl, 50 mM Na-phosphate, 0.2 mM TCEP, pH 7.5; 1:1 binding model
# [5] = target: AP180 IDR (residues 281–898 of AP180) (rat); assay: as above
# [6] = target: AP180 segment 399–598 (rat); assay: as above
# [7] = target: AP180 segment 399–598 (rat); assay: NMR CPMG relaxation dispersion; 100 μM 15N AP180 399–598 with 10 μM unlabeled AP2β2; 600 and 850 MHz; 22 residues fitted together with a two-state exchange model (ChemEx); KD calculated from pB under the assumption of 1:1 stoichiometry
# [8] = target: T1, AP2 β2-appendage domain with linker …; assay: ITC
molecule,measurement,setting,value
AP2 α-appendage domain (residues 701–938) (from UniProt P17427 701-938) (domain or fragment),residue-wise KD (first residue of Fig. 3D),[1],144 µM
same,residue-wise KD (second residue of Fig. 3D),[1],380 µM
same,residue-wise KD (third residue of Fig. 3D),[1],414 µM
AP2β2 K842E (domain or fragment),Kd,[2],7.8 µM
AP2β2 Y815A (domain or fragment),Kd,[2],4.9 µM
AP2β2 Y888A (domain or fragment),Kd,[2],7.3 µM
clathrin heavy chain terminal domain (residues 1–363) (from UniProt P49951 1-363) (domain or fragment),residue-wise KD (first residue of Fig. 2E),[3],177 µM
same,residue-wise KD (fourth residue of Fig. 2E),[3],700 µM
same,residue-wise KD (second residue of Fig. 2E),[3],294 µM
same,residue-wise KD (third residue of Fig. 2E),[3],549 µM
B1,Kd,[4],2.5 µM
same,Kd,[5],6.97 µM
same,Kd,[6],5.1 µM
same,Kd,[7],10 µM
same,exchange rate kex (kon [AP2β2] + koff),[7],662 s⁻¹
same,percentage of bound population of AP180 (10% AP2β2),[7],8.9%
B2,Kd,[8],4.2 µM
